Data: the nanobody polyreactivity screen of Harvey et al. (2022)

Assay: yeast display, Sf9 membrane polyspecificity reagent, FACS + sequencing; frameworks hold sequencing errors
How it was run: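 Nanobodies from a synthetic yeast display library (Saccharomyces cerevisiae BJ5465), induced 36–48 hours with galactose, were stained 1 hour at 4 °C with 10% biotinylated, detergent-solubilized Sf9 membrane reagent, enriched on streptavidin microbeads, then FACS-sorted. Anti-HA (expression) and streptavidin (reagent binding) fluorescence set low and high (top ~1%) gates. Polyreactivity labels come from the gate of origin. Genes were colony-PCR amplified, MiSeq 2 × 250 sequenced and filtered by CDR length.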

Row | Sequence | polyreactivity (PSR sort gate)
1 | QVQLVESGGGLVQAGGSLRLSCAASGRTFWSYAMGWYRPAPGKERELVAAINSSGDSTNYADSVKGRFTISRDNAKNTVYLQMNWLKPEDTAVYYCAADGGLLAGSDATVRMDYWGQGTQVTVSS | low polyreactivity
2 | QVQLVESGGGLDQAGGSLRLSCASSGFTFGRYAMGWYRQAPGKERELVDTITRSGVNTYYADSVKGRFTISRDNAKNTVYLQMNSLKPEDTAVSYCNVRYPLATYRLPAGEFDYWGQGTQVTVSS | high polyreactivity
3 | QVQLVESGGGLVQAGGSLRLSCAASGSIFYYYAMGWYRQAPGKERELVAAISSGGSTNYADSVKGRFTISRDYAKNTVYLQMNSLKPEDTAVYYCAADYRAQYVVWYTYDYWGQGTQVTVSS | low polyreactivity
4 | QVQLVESGGGIVQAGGSLRLSCAASGIIFYGYAMGWYRQAPGKERELVAVITSGGSTNYADSVKGRFTISRDNAKNTVYLQMNSLKPEDTAVYYCNAGYVSPDYDSWGQGTQVTVSS | high polyreactivity
5 | QVQLVESGGGLVQAGGSLRLSCAASGSIFQPYAMGWYRQAPGKERELVAAINGRGGSTHYADSVKGRFTISRDNAKNTVYLQMNSLKPEDTAVYYCAARYYRDYRWYTYAYDYWGQGTQVTVSS | high polyreactivity
6 | QVQLVESGGGLVQAGGSLRLSCPASGRIFGTYPMGWSRQEPGKESELVARITRGSSTYYADSVKGRFTISRDNAKNTVYLQMNSLKPEDTAVYYCAAVGWGYSYRARYGYWGQGTQVTVSS | high polyreactivity
7 | QVQLVESGGGLVQAGGSLRLSCAASGGTSQRYVMGWYRQAPGKERELVAAITSTGSTYYADSVKWRFTISRDNAKNTVYLQMNSLKPEDTAVYYCATGRLRIYKSYYWGQGTQVTVSS | high polyreactivity
8 | QVQLVESGGGLVQAGGSLRLSCAASGITFYIYAMGWSRQAPGKEREFVASITWRGGSTYYADSVKGRFTISRDNAKNTVYLQMNSLKPEDTAVYYCNAEYSSSRYWYYDYWGQGTQVTVSS | high polyreactivity
9 | QVQLVESGGGLVQGGGSLRLSCAASGSISDVYAMGWYRQAPGKERELVAANTSGASTYYADSVKGRFTISRDNAKNTVYLQMNSLKPEDTAVYYCAADSDSQWGMDYWGQGTQVTVSS | low polyreactivity
10 | QVQLVESGGGLVQAGGSLRLTCAASGRIFRPYTMGWYRQAPGKESELVARISISTGRTYYADSVKGRFTISRDNAKNTVYLQMNSLKPEDTAVYYCATRGYRWSVFDYWGQGTQVTVSS | high polyreactivity
11 | QVQLVESGGGLDQAGGSLRLICAASGTTFSPYAMGWYRQAPGKQRELGANITISGGSTFYADSVKGRFTISRDYAKNTDYLQMKSLKPEDTAVDYCNADSLIRWLFTVVIFDYCGQGTQVTVSS | low polyreactivity
12 | QVQLVESGGGLVQAGGSLRLSFAASGGIFRLYAMGWYRQAPGKERELVAAINGGGSTNYADSVKGRFTISRDNAKNTVYLQMNSLKPEDTAVYYCNAVQYYRFQVYEYDYWGQGTQVTVSS | high polyreactivity
13 | QVQLVESGGGLVQAGGSLRLSCAASGFTFTNNAMGWYRQAPGKERELVAAIRRSGTNTYYADSVKGRFTISRDNAKNPVYLQMNSLKPEDTAVYYCATDGYEYTDYGSSGYDYWGQGTQVTVSS | low polyreactivity
14 | HVQLVESGGGLVQAGGSLRLSCAASGSTFILNTMGWYIQAPGKERKLVAAITRRGSSTYYADSVKGRFTISRDNAKNTGYLQMNSLKPEDTAVYFCAAFSYNLGMDYWGQGTKVTVSS | high polyreactivity
15 | QVQLVESGGGLVQAGGSLRLSCAASGRTFDSNAMGWYRQAPGKERELVAAISSGGGSTYYADSVKGRFTISRDNAKNTVYLQMNSLKPEDTAVYYCAAVYHYYRGVNYWGQGTQVTVSS | high polyreactivity
16 | QVQLVESGGGLVQAGGSLRLSCAASGSTFARYAMGWYRQAPGKERELVAAISRSGSNTYYADSVKGRFTISRDNAKNTVYLQMNSLKPEDTAVYYCAAVQPGQRTVAYDYWGQGTQVTVSS | high polyreactivity

Row | Sequence | polyreactivity (PSR sort gate)
17 | QVQLVESVGGLVQAGGSLPLSCAASGRTFTSYAMGWYRQAPGKERELVAAINYSGGSTYYADSVKGRFTISRDNAKNTVYLQMNSLKPEETAVYYCAKSSHAREYYYWGQGTQVTVSS | low polyreactivity
18 | QVQRVESGGGLVQAGASLRLSCAASGSTFLTNAMGWYIQAPGKERELVAAITWSGTSTYADSVKGRFTISRDNAKNTVYLQMNSLKPEDTAVYYCIADGWYYPTDDYWGQGTQVTVSS | low polyreactivity
19 | QVQLVESGGGLVQAGGSRRLSCAASGFFFRTYSMGWYRQAPGTERELVAAISSSSGSTYYADSVKGRFTISRDNAKNTVYLQMNSLKPEDTAVYYCAAYSLSQKPRGYNYWGQGTQVTVSS | high polyreactivity
20 | QVQLVESGGGLVQAGGSLRLSCAASGSTFPWNAMGWYRPAPGKERELVAAISSGGSTNYADSVKGRFTISRDNAKNTVYLQMNSLKPEDTAVYYCNAYYWSDSRGKYDYWGQGTQVTVSS | low polyreactivity
21 | QVQLVESGGGLVQAGGSLRLSCAASGNIFWRYAMGWYRQAPGKERELVAAISRRGGSTYYADSVKGRFTISRDNAKNTVYLQMNSLKPEDTAVYYCAASHSTWFSDPYGYWGQGTQVTVSS | low polyreactivity
22 | QVQLVESGGGLVQAGGSLRLSCAASGSTFSANAMGWYRQAPGKERELVAGISRSGGRTYYADSVKGRFTISRDNEMNTVYLQMNSLKPEDTAVYYCNARRRGAGGYDYWGQGTQVTVSS | high polyreactivity
23 | QVQLVESGGGLVQAGGSLRLSCAASGTTFILNAMGWYRQAPGKDRELVATISSSDTSTYYADSVKGRFTISRDNAKNTVYLQMNSLKPEDTAVYYCNADYYTTSYLQRVFHYGVEYDYWGQGTQVTVSS | low polyreactivity
24 | QVQLVESGGGLVQAGGSLRLSCAASGRTFQWYVMGWYRQAPGKERELVAAITKSGGSTFYADSVKGRFTISRDNAKNTVYLQMNSLKPEDTAVYYCAASGRYAIVLGDQYYGYYYWGQGTQVTVSS | high polyreactivity
25 | QFQLVESGGGLVQAGGSLRLSCAASGIIFNRNVMRWYRQAPAKERELVAAITWGGGRTYYADSVKGRFTISRDNAKNTVYLQMNSLIPVDTAVYFCAARSRGSSRFDYWGQGTQVTVSS | high polyreactivity
26 | QVHLVESGGGLVQAGGSLRLSCAASGRIFRYNAMGWYRQAPVKESELVAAISSIGGRTYYADSVKGRFTISRDNAKNTVYLQMNSLQPEDTAVYNCAALSYYVDGEYDYWGQGTQVTVSS | high polyreactivity
27 | QVQLVESGGGLVQAGGSRRLSCAASGNTIYFYVMGWYRQAPGKERELVAAISSSGGSTYYADSVKGRFTISRDNAKNTVYLQMNSLKPEDTSVYYCAAEMYLSRLRYWYDYWGQGTQVTVSS | high polyreactivity
28 | QVQLVESGGGLVQAGGSLRLSCAASGITFFYNAMGWSRQAPGKERELVADITNSGSTYYADSVKVRFTISRDNAKNTVYLQMNSLKPEDTAVYDCAAGQAYDFFVYYPDDYWGQGTQVTVSS | low polyreactivity
29 | QVQLVDSGGGLVQAGGRLRLSCAASGSIYAAYTMGRYRQAPGKERELVAAISVSTVSTYYADSVKGRFTISRDNAKNTVYLQMNSLKPDDTAVYYCNADATYSYPEKDEPDSWGQGTQVTVSS | low polyreactivity
30 | QVQLVESGGGLVQAGGSLRLSCAASGSTFPEYAMGWYRQAPGKERELVATISWSGGSTDYADSVKGRITISRDNAKNTVYLQMNSLKPEDTAVYYCNKELIPHFDTRESWGQGTQVSVSS | low polyreactivity
31 | QVQLVESGGGLVQAGGSLRLSCAASGRILGKNTMGWYRQAPGKEREFVAAISASGGRTYYADSVKGRFTISRDNAKYTVYLQMNSLKPEDTAVYYCAAARSRYSYATGFDYWGQGTQVTVSS | high polyreactivity
